Assay [1] addresses human serum albumin (human) (UniProt P02768). The assay is described as follows: SPR (Biacore T100), serum albumin immobilized on CM5 chip, running buffer pH 5, 25 C. Background: SPR reads the build-up and loss of mass on a sensor chip optically.
Assay [2] has the same target. Kind of assay: SPR (Biacore), ratio of off rates at pH 7 and pH 5.
For assay [3] the target is unchanged. Kind of assay: SPR (Biacore T100), serum albumin immobilized on CM5 chip, running buffer pH 7, 25 C.

B1: Nanobody 4A2 (VHH, from a related filing)
VHH: EVQLVESGGGLVQAGGSLRLSCAASGLSFSSYAMGWFRQAPGKEREFVAAIRRREGNSYYADSVKGRFTISRDSAKNTVYLQMNSLKPEDTALYSCAATAPHYSGSFAYAGGYDYWGQGTQVTVSS
On to B1, for which the koff in assay [1] was found to be 0.0227 s⁻¹; in assay [3] it was 0.00642 s⁻¹. Moreover, the Ratio pH 7/pH 5 in assay [2] was 3.54.

B2: Nanobody 4D3 (VHH, from a related filing)
VHH: EVQLVKSGGGLVQPGGSLRLSCAASGFTFSHYQMSWVRQAPGKDVEWVSSISMLGGGTTYADSVKGRFTISRDNAKSTLVLQMNNLKVEDTAVYYCARGFSGNYYRADLGQGTQVTVSS
As for B2, the koff in assay [1] came to 0.0137 s⁻¹; in assay [3], 0.00565 s⁻¹. In addition, the Ratio pH 7/pH 5 in assay [2] was 2.42.

One may read the koff as a measure of how fast the partners let go of each other. Higher therefore signals fast dissociation.

(Values after US20090074770A1.)
